Experimental findings from US11517583B2, “Trans-splicing RNA (tsRNA)” (NATIONAL UNIVERSITY OF SINGAPORE, priority 2016, dated 2022) are described below.

In data set [1] the test system is AFP pre-mRNA (AFP_E3-E6 mini-gene). Put plainly: real-time RT-PCR (TaqMan) quantification of trans-splicing towards over-expressed AFP mini-gene in HepG2 cells. It counts as cell-based, human. The settings on record: 3′ER, HepG2 co-transfected with AFP mini-gene vector, 24 hours post transfection. As for the experimental part:
Transfection of plasmid DNAs: HepG2 cells were transfected at ˜70-90% confluency in a 6-well plate for Western blotting, 12-well for FACS analyses and 24-well plate for all other analyses using either Lipofectamine 3000 (for FACS studies only) or Lipofectamine 2000, (Life Technologies) according to manufacturer's protocol. A total of 1 μg DNA was co-transfected or transfected in a 24-well plate format (500 ng:500 ng of ts construct: AFP_E3_E6 minigene) in over-expression studies and 1 μg of ts constructs only in endogenous studies. For 12-well and 6-well formats, the amount of total DNA was scaled up to 2 μg and 4 μg respectively. For FACS experiments, either 500 ng of pEGFP-C2 plasmid was co-transfected along with the ts and AFP mini-gene vectors to perform experiments with some 3′ER and 5′ER plasmids and dumbbells, or the GFP infused ts vectors were used along with/without AFP mini-gene for over-expression and endogenous studies respectively.
Total RNA Isolation: RNA was isolated 24 hours post-transfection using RNeasy plus kit (Qiagen) following the manufacturer's protocol. RNA concentrations were measured using NanoDrop 2000.
cDNA conversion and real-time RT-PCR: 500 ng RNA from all samples was converted into cDNA using the First Strand SuperScript RTIII (Invitrogen) kit with 200 ng of random hexamers and 10 uM of dNTPs. The reaction conditions were 25° C. for 5 min, followed by 50° C. for 2 h and enzyme inactivation at 70° C. for 15 min. 20 ng of cDNA was used as template for real time RT-PCR. TaqMan quantification was performed in ABI 7900HT of the cDNAs by designing specific probe and primer sets for each cis- and trans-splicing detection. One set of probes were designed in the AFP regions; namely AFP probe exon 5 and AFP probe exon 4 to detect 3′ER and 5′ER cis and trans-splicing respectively. Primers to detect 3′ER cis-splicing along with AFP probe were FP afp exon 5 (set1) and RP afp exon 6 and for 3′ER trans-splicing were FP afp exon 5 (set1) and RP HSVtk. Primers to detect 5′ER cis-splicing along with AFP probe were FP afp exon 3 and RP afp exon 4 (set1) and for 5′ER trans-splicing were FP HSVtk (set1) and RP afp exon 4 (set1). Another set of probes were designed in the distal HSVtk region to detect 3′ER, named HSVtk probe for 3′ER and proximal HSVtk region to detect 5′ER, named HSVtk probe for 5′ER trans-splicing alone. The primers to detect 3′ER trans-splicing along with HSVtk probes were FP afp exon 5 (set2) and RP HSVtk. Primers to detect 5′ER trans-splicing along with HSVtk probes were FP HSVtk (set2) and RP afp exon 4 (set2). The number of cycles in over-expression studies and endogenous studies were 40 and 50 respectively. RT-PCR: Reverse transcription PCR was performed on the cDNA samples using Taq DNA polymerase (Fermentas) with […] of two-step PCR (30+30 cycles or 35+35 cycles) to detect 3′ and 5′ cis and trans-splicing and the bands were visualized on a 1% agarose gel. The primers used to detect 3′ER cis-splicing and mock were FP afp exon 5 (set1) and RP afp exon 6, to detect 3′ER trans-splicing were FP afp exon 5 (set1) and RP HSVtk. To detect 5′ER cis-splicing and mock were primers FP afp exon 3 and RP afp exon 4 (set1), to detect 5′ER trans-splicing were primers FP HSVtk (set1) and RP afp exon 4 (set1). […]
(Real-time PCR tracks product formation cycle by cycle.)

Data set [2] deals with HHRz cleavage motif at tsRNA 3′ end. Kind of data set: stem-loop primer based rt-RT-PCR of hammerhead ribozyme (HHRz) cleavage. It counts as cell-based. An excerpt: FIG. 3 Improved stability at 3′ end of the RNA improves 5′ trans-splicing in correlation with cleavage of hammerhead ribozyme. […] 145. The conserved motifs of stem Ia, Ib and II are highlighted in boxes and stem Ill is designed as a perfect complement to the 3′ end of the ΔBD to make the HH Rz structure. Cleavage motif GUC is shown with a scissor icon. […] R2, correlation coefficient. n=3, linear regression analysis.
That was surprising as the uncleaved RNA comprises a polyA tail and is expected to be exported to the cytoplasm thereby lowering its nuclear concentration and the rate of trans-splicing. We investigated HHRz cleavage by quantifying the cleaved RNA 3′ end using stem-loop primer based rt-RT-PCR (FIG. 3a). This method was proven to efficiently discriminate between perfect primer-matching and extended RNA 3′ ends. The observed 6.2 cycle difference indicated a ribozyme cleavage rate above 90% yielding trans-splicing RNA with an unstructured 3′ terminal BD (FIG. 3a). Unstructured ends of antisense RNA have been reported to be associated with both fast target binding and degradation. […]

B1: 3ER_ΔBD-opt: parental 3′ exon replacement tsRNA construct; unstructured 50 base BD to AFP intron 5 with two mismatches, HSVtk (nucleic acid)
DNA: GCTAGCACCTCTCTAAACCTAAATTAAATTTTCTTCTCTAAACCTCTTTCCTAGTTGGACTGACGTCACTCAGTCCTCCTCCTCAGC
In the case of B1, in data set [1], the “more potent (trans-splicing) than 3ER_BD-struc1” value is recorded as 4 fold and the “stronger trans-splicing compared with 3ER_ΔBD-opt-inv” value was determined as 3 fold. Moreover, in data set [1] (p=0.04), the “more potent (trans-splicing) than 3ER_BD-struc2” value stood at 6 fold, the “stronger trans-splicing compared with 3ER_BD-opt” value was found to be 4 fold and the “stronger trans-splicing compared with 3ER_BD-opt-inv” value was found to be 30 fold.

B2: p5ER_ΔBD-opt_HH: parental 5′ exon replacement tsRNA construct; unstructured mismatched BD to AFP intron 3, HSVtk, active hammerhead ribozyme (nucleic acid)
DNA: GGTACCCCTCCTTCCTCCTCCTCCTCCTCCTCCTCCTATATACATATACACACACACACACACTCATACCACATTTCAGACATAAAT
For the molecule B2, in data set [2] (indicated by the cycle difference), the ribozyme cleavage rate result is “above 90%”. The “cycle difference, cleaved RNA 3′ end (active versus inactive HHRz motif)” value in data set [2] (stem-loop primer rt-RT-PCR) is reported as 6.2 cycle.
